Data reported in patent US20240043504A1 (published 2024).
Residue numbers refer to the chain shown, from its start.

B1: mAb11010 (antibody, V domains shown)
VH: QVQLVESGGGVVQPGRSLRLSCAASGFTFSSYGMHWVRQAPGKGLEWVAVISYDGSYKYYADSVKGRFTISRDNSKNTLYLQMNSLRAEDTAVYYCAIDGGTVTTIFDYWGQGTLVTVSS
VL: not shown
B2: mAb11006 (antibody, V domains shown)
VH: EVQLVESGGGLVQPGGSLRLSCAASGFIVSRNYMSWVRQAPGKGLEWVSVIYSGGSTFYADSVKGRFTISRHNSKNTLYLQMNSLKAEDTAVYYCARELRGYFDYWGQGTLVTVSS
VL: DIQLTQSPSFLSASVGDRVTITCWASQGISSYLAWYQQKPGKAPKLLIYAASTLQSGVPSRFSGSGSGTEFTLTISSLQPEDFATYYCQLLNSYPYTFGQGTKLEIKR
B3: mAb11008 (antibody, V domains shown)
VH: EVQLVESGGGLVQPGGSLRLSCAASGFTVSSNYMTWVRQAPGKGLEWVSVIYSGGSTFYADSVKGRFTISRHNSENTLYLQMNSLRAEDTAVYYCARDLAAAGTDYWGQGALVTVSS
VL: B2 VL with E81D, L90H, P95L
B4: mAb11002 (antibody, V domains shown)
VH: EVQLVESGGGLVQPGGSLRLSCAASGFTVSSNYMSWVRQAPGKGLEWVSVIYSGGSTFYADSVKGRFTISRHNSKNTLYLQMNSLRAEDTAVYYCAREGYGMDVWGQGTTVTVSS
VL: not shown
B5: mAb10998 (antibody, V domains shown)
VH: EVQLVESGGGLVHPGGSLRLSCAASGLTVSSNYMSWVRQAPGKGLEWVSVIYSGGSTYYADSVKGRFTISRHNSKNTLFLQMNSLRAEDTAVYYCARDRPITGTTLDVWGQGTTVTVSS
VL: DIQMTQSPSSLFASVGDRVTITCRASQSISSYLNWYQQKPGKAPKLLIYAASSLQSGVPSRFSGSGSGTDFTLTISSLQPEDFAFYYCQQTYSTPPITFGQGTRLEIKR
B6: mAb11004 (antibody, V domains shown)
VH: QVQLVESGGGVVQPGRSLRLSCVASGFTFSIYGMDWVRQAPGKGLEWVAVISYDGSNKYYADSVKGRFTISRDNSKNTLYLQMNSLRPEDTAVYYCAKDREAAADAFDIWGQGTMVTVSS
VL: DIQMTQSPSSVSASVGDRVTITCRASQGISSWLAWYQQKPGKAPKLLIYAASSLHSGVPSRFSGSGSGTDFTLTISSLQPEDFATYYCQQANSFRLTFGGGTKVEIKR
B7: mAb10986 (antibody, V domains shown)
VH: EVQLVESGGGLVQPGGSLRLSCAASEFTVSSNYMSWVRQAPGKGLEWVSVIYSGGSTFYADSVKGRFTISRDNSKNTLYLQMNSLRAEDTAVYYCARALPYGDLHFDYWGQGTLVTVSS
VL: QSVLTQPPSVSGAPGQRVTISCTGSSSNIGTGYDVHWYQQLPGTAPKLLIYGNTNRPSGVPDRFSGSKSGTSASLAITGLQAEDEADYYCQSYDSSLSDSYVFGTGTKVTVLG
B8: mAb10989 (antibody, V domains shown)
VH: QVQLVQSGAEVKKPGASVKVSCKASGYIFTGYYMHWVRQAPGQGLEWMGWINPNSGGANYAQKFQGRVTLTRDTSITTVYMELSRLRFDDTAVYYCARGSRYDWNQNNWFDPWGQGTLVTVSS
VL: QSALTQPASVSGSPGQSITISCTGTSSDVGTYNYVSWYQQHPGKAPKLMIFDVSNRPSGVSDRFSGSKSGNTASLTISGLQAEDEADYYCSSFTTSSTVVFGGGTKLTVLG

The binders below were run against SARS-COV-2 RBD extracellular domain expressed with a C-terminal mouse IgG2a (SARS-COV-2 RBD-mFc) (SARS-CoV-2) (assay: SPR, captured mAb, RBD-mFc in solution, 37 C).

Binder	Kd	t½	koff	kon
B1	0.0505 nM	2.4 h		
B2	0.197 nM	2.52 h		
B3	0.872 nM	0.475 h	0.000405 s⁻¹	464000 M⁻¹ s⁻¹
B4	32.6 nM	0.0117 h		
B5	22.4 nM	0.01 h	0.0197 s⁻¹	879000 M⁻¹ s⁻¹
B6	0.117 nM	1.63 h	0.000118 s⁻¹	1.01e+06 M⁻¹ s⁻¹
B7	0.0126 nM	3.32 h		
B8		0.527 h		
